Measurements: the DeepSol protein solubility set

Assay: soluble on expression in E. coli; label from the status in PepcDB or PDB records

Row | Sequence | soluble on expression in E. coli
1 | MKPDAHQVKQFLLNLQDTICQQLTAVDGAEFVEDSWQREAGGGGRSRVLRNGGVFEQAGVNFSHVHGEAMPASATAHRPELAGRSFEAMGVSLVVHPHNPYVPTSHANVRFFIAEKPGAEPVWWFGGGFDLTPFYGFEEDAIHWHRTARDLCQPFGEDVYPRYKKWCDDYFYLKHRNEQRGIGGLFFDDLNTPDFDHCFAFMQAVGKGYTDAYLPIVERRKAMAYGERERNFQLYRRGRYVEFNLVWDRGTLFGLQTGGRTESILMSMPPLVRWEYDYQPKDGSPEAALSEFIKVRDWGLEHHHHHH | not soluble
2 | AVVASLKPVGFIASAIADGVTETEVLLPDGASEHDYSLRPSDVKRLQNADLVVWVGPEMEAFMQKPVSKLPGAKQVTIAQLEDVKPLLMKSIHGDDDDHDHAEKSDEDHHHGDFNMHLWLSPEIARATAVAIHGKLVELMPQSRAKLDANLKDFEAQLASTETQVGNELAPLKGKGYFVFHDAYGYFEKQFGLTPLGHFTVNPEIQPGAQRLHEIRTQLVEQKATCVFAEPQFRPAVVESVARGTSVRMGTLDPLGTNIKLGKTSYSEFLSQLANQYASCLKGD | soluble
3 | LSQEETELELLRQFDLAWQYGPCTGITRLQRWHRAEQMGLKPPVEVYQVLKTHPEDSRFQCSLWHLYPL | not soluble
4 | KARLIYNPTSGQEIMKKNVAEVLDILEGFGYETSAFQTTPTKNSARDEATRAAQAGFDLIVAAGGDGTINEVVNGIAPLKRRPKMAIIPTGTTNDFARALKIPRGNPIEATKLIGKNQIVKMDIGQAQED | not soluble
5 | MSIKQWPEGERPREKLLERGAAALSDAELLAILLRVGTRGMSAVDLARYLLQEFGSLGRLMSAEVGKLSAYKGMGTASFTQFAVVREIGRRILAEELQESIVLSDPDTVADYLRFHLGQEKVEVSVALLLNRQNQLIAVRELSRGTVAENTIYIREIVKLALDEYADSLIIAHNHPGGSPEPSQEDIMFTRRLAQAMSLVDVSLLDHFIVTSQSVCSFRQLGLMP | not soluble
6 | MSLAHKAKLKIIPLGGLNEIGKNMTVFEYGNDIIVVDCGLAFPDDEMLGIDLVIPDITYLLKNREKVKAIVLTHGHEDHIGALPYVLKQLNVPIYGTRLTIGLVEYKLKEHGLLRDSKLITVKPRETVEIGQFKVEFIRTSHSIADSAALAIHTPVGTVFHSGDFKIDFTPIDGEVPDLHRFAQLGEKGVLVMLCDSTNIERPGYTMSERTVGETFDNLFRKAEQRIIVATFASNIHRVQQIINSAQKYGRKVAISGRSMVNVVNVAMELGYLTVPEGLLIDLDEANKLPHNKVVIITTGSQGEPMSALTRMASSEHKKVEIVPGDTVIISASPIPGNERLISRVINQLFKKGANVIYEALADIHVSGHACQEEIKLLHTLIKPKFFIPVHGEYRHLVQHAKLAESLGMPPENIFVVDNGTVLEFTKEGHHHHHH | soluble
7 | MFRLLVPTYYSYSVPLRFPFCKIYRYSTSNKMVAIKDITARQILDSRGNPTVEVDLLTDGGCFRAAVPSGASTGIYEALELRDKDQTKFMGKGVMKAVENIHKIIKPALIGKDPCDQKGIDKLMVEELDGTKNEWGWCKSKLGANAILAVSMACCRAGAAAKGMPLYKYIATLAGNPTDKMVMPVPFFNVINGGSHAGNKVAMQEFMIAPVGASTIQEAIQIGAEVYQHLKVVIKKKYGLDATNVGDEGGFAPNISGATEALDLLMEAIKVSGHEGKVKIAADVAASEFFLQDDKVYDLDFKTPNNDKSQRKTGEELRNLYKDLCQKYPFVSIEDPFDQDDFHSYAQLTNEVGEKVQIVGDDLLVTNPTRIEKAVQEKACNGLLLKVNQIGTVSESIEACQLAQKNKWGVMVSHRSGETEDSFIADLVVGLRTGQIKTGAPCRSERLCKYNQLMRIEESLGSDCQYAGAGFRHPN | soluble
8 | ASIKENSYFAGGVKSLGFNQHGQDVSVGVMLPGEYTFGTQAPERMTVVKGALVVKRVGEADWTTYSSGESFDVEGNSSFELQVKDATAYLCEYL | soluble
9 | MAHHHHHHMSSELVLAQESAWDKFGSKLKDMPFLNNFFENPILGKLFGETELAAALREMKMYDQNFKLSELMYLFEFVISKHIVESYLIGDEETLRVHCGQSAFNSLNASINERKKKKVYLDTNVLIYKNHELKGAQRMEESSPWFIFTFHTQQINCLKNANDEIIEGNIDDIREVVYTIALSKHPEPEREGLLYPYIVREFAIY | not soluble
10 | MKLIAESGSTRTEWALVEDNHLVQRVFTEGLNPFFQTRREISRSVRLGLPESFFKKKLDQVYYYGAGCSSYEKKNILGASLVAQFKTPIQVESDLLAAARGLFKCEAGIACILGTGSNSCFYDGKIIVKNVKAAGYILGDEGSGAVLGKLFLADLLKGLAPKELANEFHEKFRISVNDVMESVYNLPFPNRFLGTIAYFLGDYMDNEYVYNLLTNNLRSFFNRNVCQYDYINYPIRFVGSLAYAYPDILQEVAQEFGVEIDVIEETPMNGLIEFHSMNIEESMAGDPLEHHHHHH | not soluble
11 | MKKIIFTFLILGNVYNFAAQKTLRTVEKCRVTSKGTTKDGKRFANCISLQSGKTFNFTGLVDQTYYKFSKGTIFKVYFYGNGNRNLTLETFDYIR | not soluble
12 | MAHHHHHHMPTASASREPLVPSINFSMVCPGVYRSGYPTKKNYSFLCALRLRSILYLCPEDYAESNLKFCEENGIHVLRFPTEGNKEPFCDVSEPLMHRILSAICDTRNLPLLIHCNKGKHRTGTVVACLRHLQGWSLVSIFEEYKRFASDKARVGDQQYVELYHPIVKLTPPFVALWVTVTPRVTLVTSDRELMEAEAMQLGYSLLAPDKHLMKNGSSTNKSTAPTAAAASGAASVTAAPAAAAAATAGSGPTVAVSTSGPSAAGAMQQQQPSQPVTSAASASASNSGHSLAPSLMATAATPAAADR | not soluble
13 | MGSDKIHHHHHHMGMSSDLIKPRRPSTSGCAIHCHDCSMEALCIPFTLNNDELDKLDSIIERKKPIQKGDLIFKSGDVLKSLYAIRSGTIKSYTITEQGDEQITGFHLAGDVIGFDGIHAQRHQSFAQALETSMVCEIPYDTLDDLSGSMPKLRQQIMRLMSNEIMSDQEMILLLSKKNAEERLAAFINNLANRFGNRGFSPHEFRLTMTRGDIGNYLGLTVETISRLLGRFQKSGLIEVKGKYISIIDHSALSTLAGNARIAT | not soluble
14 | MTISLRRTGILKFGIGLVALTIAASVQAKTLVYCSEGSPEGFNPQLFTSGTTYDASSVPIYNRLVEFKIGTTEIEPSLAERWEVSEDGKTYTFYLRKGVKWQDNKDFKPTRDFNADDVIYSFMRQKDDKNPYHKVSGGSYEYFQGMGMGDLITNVVKVDDNTVRFELTRPESPFLADLAMDFASILSAEYADNMLKAGTPEKVDLNPIGTGPFQLQQYQKDSRILYKAFPGFWGTKPKIDRLVFSITPDASVRYAKLQKNECQIMPYPNPADIARMKEDKTINLMEQPGLNVGYLSFNIEKKPLDNLKVRQALTMAVNKDAIIDAVYQGAGQAAKNLIPPTMWGYNDDVKDYAYDPAKAKELLKEAGLPDGFSIDLWAMPVQRPYNPNARRMAEMIQSDWAKIGVKAKIVTYEWGEYLKRAKDGEHETVMMGWTGDNGDPDNFFATLFSCDAAKQGSNYSKWCYKPFEDLIQPARAEADHDKRVALYKQAQVVMNEQAPALIIAHSTVYEPVRKEVKGYVVDPLGKHHFDNVSLD | not soluble
15 | EVQLVESGGGLVQPGGSLRLSCAASGFTFSDYGIAWVRQAPGKGLEWVAFISDLAYTIYYADTVTGRFTISRDNSKNTLYLQMNSLRAEDTAVYYCARDNWDAMDYWGQGTLVTVSSASTKGPSVFPLAPSSKSTSGGTAALGCLVKDYFPEPVTVSWNSGALTSGVHTFPAVLQSSGLYSLSSVVTVPSSSLGTQTYICNVNHKPSNTKVDKKVEPKSCDKTHTC | soluble
16 | MIYKACIRKRCGGVCVGEELKPEKIQEIRLGDCPICGGKGTLKAIQFIHRIPYFGEVMESTVVCERCGYRNSDVIILEEREPRLYEVKVEEEKDLFIRVVRSKSGTIELEELGIKIEPGPAAEGFVSNIEGVLERAKEVLLMARDFKEQENDREAVRRIDELLKYIEEVKEGKKPLTVRIMDPFGNSALIGEKVKSRKLTKEEIRKLSKGPYIVIEPDEVPQQLEHHHHHH | not soluble
17 | MLKTILSIAGKPGLYKLISQGKNMLIVETVDAAKKRVPAYAHDKVISLADIAMYTDAEEVPLSEVLEAVKKKENGAVASINYKKASADELHAYFAEVLPNYDRDRVHNGDIKKLISWYNILVNNGITEFVEAPADSADKVEEAVAELEHHHHHH | soluble
18 | MAHHHHHHMASQKPEDVTVSDGMLANLEREFNEAMRALEGHVKFVCFREEYEKLHRALLNSHESEKRLVRRCQQLTQELMSNAAKMQAAVKLAQDDHTTIEALKKETEKAWRMVDVANEKDARAKETIKKLREEVFSLQEIVENGTELTPTQTATLEELKLEKKRMQSEYDELVKQMETLTRETFELGHKMKEAEEEMMKHQEELRRVTDREKTVRQEYEKELRARDRSNLQLREQLLLVQQREKELKSHEQLHSKLSSAVNLLRLQLQEDQNRRQALAQKIESAERQLYHTQQSYDDAVDTREALNERHREVRKEITEAEKKAVDITAEKQRTHRVRDNDYKELCRLVQQNEDIRRDQTNLERQRLNVEKRIEMARREKEDLCRAFEMMQREKDSLKKVSEKEREKMQIMKN | soluble
19 | MFKIKTIESLSDLTQLKKAYFDSSIVPLDGMWHFGFAPMAKHFGFYVNKNLVGFCCVNDDGYLLQYYLQPEFQLCSQELFTLISQQNSSVIGEVKGAFVSTAELNYQALCLDNSATFKVNSLMYQHNTKLADRNLEMIDMQIAGTEQLTAFVTFAAANIGAPEQWLTQYYGNLIERKELFGYWHKGKLLAAGECRLFDQYQTEYADLGMIVAQSNRGQGIAKKVLTFLTKHAATQGLTSICSTESNNVAAQKAIAHAGFTSAHRIVQFEFKHA | soluble
20 | MGSDKIHHHHHHMTAPMPNLGAVFDTVDPAMAHLAARIDRLILAIDAALTRQLNAILAASEFRALEARWRALDRVLTHAGRDGQVIVRILNVSWRALSRDLDRAVEFDQSHLHKLVYDGEFGMPGGLPFGVLVADYEVSATTDRARGDQVETLSRLAAVAAAAFCPIMLGAAPDLLGVDDFDQIAPYTDLTDAEGRRADPPMIRWRALRDRDDARFIGLVAPRIVLRGPRTRLSPTRADGFTFDEDPHRILSVAGSFAFATTVIAAFRASGWFAAIRGAAQDTDGGGRVAGWPGHDLGTDGHNLSRQSPATLRLTAAQEDALIARGIVPLSSLPLTDEAVFNANPSLHRPTRYDSPVASENARISAMLQYVLCTSRFAHYLKVMMREAIGSVAPPDVIQGHLDDWLRGYCLGNEDAGAELKAEYPLRNAGVEVTPIPGKPGAFAARIHLQPHFQLDDISTSFHLVSEAPAGLERTSA | not soluble
21 | MGSSHHHHHHGKTIFVIVPTNEEQVAFLEALAKQDELNFDWQNPPTEPGQPVVILIPSDMVEWFLEMLKAKGIPFTVYVEEGGSENLYFQGGGGGGQRHAHDSAVGDKALTHKGRLRLSQNASGSAAGRCGSDDGNDSDQGGVDDDNGGAVGRRRRGAGGVLRRRRPQERGGNARRGGSDGDENSYDGDDAGGIPETDANGVKLTRLQRKKLAKEREREERRQAQEAALEAQRQRMDVNELRDAEAALREEELKAAEEAALQQLRRDKKKAEDEEYAKWVSHIGVEERGELGDEERERQTRMQSFLLDRAAQVQARARRSAAGAKSSPSEEECIHVLILQTAARDLKVSVEELVSTIEQLSQVDKVHGVFDDRGKYVFIAPEQFPLLAQFIRLRGRVSVQEFTRECNRVVMQS | soluble
